Experimental data taken from the supplement of paper PMC12042874.
± gives the uncertainty stated by the source.

Test: amyloid nucleation score (Sup35N fusion, yeast selection) (log enrichment); library NNK1; higher = more nucleation; inactive = no reads after selection
How it was run: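 Sup35N fusions to peptides of 20 random codons were expressed in psi-negative yeast, induced 24 hours with 100 μM copper sulfate, and grown 7 days at 30°C on medium lacking adenine and uracil. Input and output plasmid inserts were sequenced by Illumina. The nucleation score is the DiMSum log enrichment of output over input reads, centred on the mode score of non-aggregating sequences. Sequences with under 100 input reads were excluded.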

With NKTLV the amyloid nucleation score was “inactive”.
For NKVLCFK, the amyloid nucleation score was “inactive”.
In the case of NNTDYLNCYTAICSSNTVAG, the amyloid nucleation score is reported as “inactive”.
With NQYLDVGVRKSNAECKVPHE the amyloid nucleation score was “inactive”.
With NSSSIQVANRARDV the amyloid nucleation score was “inactive”.
With NTIEGV the amyloid nucleation score was “inactive”.
With NVAPSQSFPSLYCSE the amyloid nucleation score was “inactive”.
In the case of NVGYTYGYRKNSADNMAFCV, the amyloid nucleation score is reported as “inactive”.
With NVNWKWVGNTLVVSIMVEAN the amyloid nucleation score was “inactive”.

NKVHSSFSLGGLPEARASDE and NKWSRSGKRCAKMGNSCSDE are within error of each other in amyloid nucleation score: 0.966 ± 0.66 for the first, 1.49 ± 0.69 for the second.

NKWYVF and NLALLEYVINSVSTMFYISN are within error of each other in amyloid nucleation score: 0.071 ± 1.1 for the first, 0.276 ± 0.24 for the second.

Going from NLCSFFMFTIILGGNVGTFM to NLDFLLFGIECIVKTCPFGY, the amyloid nucleation score falls from 7.208 ± 0.044 to 0.01 ± 0.44.

Going from NLFCRRMSSDWALKSELSNH to NLFVSYSTDNSSTFMWDSVR, the amyloid nucleation score rises from 0.708 ± 0.36 to 4.44 ± 0.058.

First: NLGLR
Second: NLGVVSIHDRHRYVAKVYSS
The amyloid nucleation score of the first is higher: 4.49 ± 0.077 for the first, 0.844 ± 0.5 for the second.

NLILIR and NLKADRFDHGSPEVVSLSFI are within error of each other in amyloid nucleation score: 0.72 ± 0.61 for the first, -0.027 ± 0.98 for the second.

Going from NLKRPNELWINIETFIRSLH to NLLWCIVGTKPWKVLTTVNY, the amyloid nucleation score falls from 1.32 ± 0.38 to -0.28 ± 0.38.

First: NLQVVYMSLV
Second: NLSGSFPN
The amyloid nucleation score of the first is higher: 2.99 ± 0.14 for the first, -0.2 ± 0.92 for the second.

First: NLSSYGR
Second: NLTRHVDVANPAPRLPHLGV
The amyloid nucleation score of the first is higher: 0.798 ± 0.23 for the first, -0.146 ± 0.46 for the second.

First: NLTTPIWDRSYCSYMNMMNS
Second: NLYFIHVSRMIWSNSV
The amyloid nucleation score of the first is lower: 0.369 ± 0.42 for the first, 5.02 ± 0.075 for the second.

NMDGLAPISGSFYSRSGNFI and NNFGFET are within error of each other in amyloid nucleation score: 0.964 ± 0.61 for the first, 0.671 ± 0.31 for the second.

Compared with NNGPIPNILKEL, NNIVLDFLFGVSLHRFGPHH is higher in amyloid nucleation score: 0.523 ± 0.41 for the first, 4.43 ± 0.14 for the second.

NNKDISYGREAGGYEVERKD and NNKKNY are within error of each other in amyloid nucleation score: -0.907 ± 1.2 for the first, -0.505 ± 0.27 for the second.

NNLFYEIRM and NNRIRRGGSVSVVMTVCDMD are within error of each other in amyloid nucleation score: 1.92 ± 0.17 for the first, 1.81 ± 0.34 for the second.

First: NNSYFMCNTLRRVLMGLLLG
Second: NPGIDYNERYWMG
The amyloid nucleation score of the first is higher: 1.11 ± 0.65 for the first, -1.09 ± 1.1 for the second.

Going from NPNFDRGQRSLQLDIMVKWR to NPNTKYINCPHRVAFRGKLM, the amyloid nucleation score falls from 1.97 ± 0.19 to 0.552 ± 0.74.

NPRISCFVLQIRSAALSQSV and NPSGFRSTEWYV are within error of each other in amyloid nucleation score: -0.007 ± 0.92 for the first, -0.421 ± 0.56 for the second.

First: NQACAFYNRLRFGK
Second: NQMGRRQRVLRSSDSRPTVL
The amyloid nucleation score of the first is higher: 3.27 ± 0.14 for the first, -0.114 ± 0.74 for the second.

First: NQMVWMVELWRTVDCVVLNV
Second: NQTNIMCSPNIICSVSGQSG
The amyloid nucleation score of the first is lower: -0.17 ± 0.34 for the first, 6.743 ± 0.047 for the second.

NQWCAFWYRESSRVYDCDWL and NRCCVPTKATN are within error of each other in amyloid nucleation score: -0.478 ± 0.53 for the first, 0.27 ± 0.53 for the second.

NREGCIMWHRRVLARRCLTS and NRFFSRVKKYPYTLSYPGFC are within error of each other in amyloid nucleation score: 0.145 ± 0.89 for the first, 0.065 ± 0.29 for the second.

NRNVYRSGVFGSGVWTRVER and NRRMCFRCIFGFHVCKLNGW are within error of each other in amyloid nucleation score: 0.15 ± 0.45 for the first, -0.027 ± 0.5 for the second.

NRRVPLIHCYLMCGYTGTCW and NRRVSLCRASCSIMRVKPLG are within error of each other in amyloid nucleation score: 0.249 ± 0.4 for the first, -0.261 ± 0.56 for the second.

NRSVRGVFLEGNVRFCWLRE and NRWSGLSHRS are within error of each other in amyloid nucleation score: 1.21 ± 0.85 for the first, -1.63 ± 2.1 for the second.

NRYIRELGRKTYVLRKEFRG and NSFRTGVLYSMESEGMAWWC are within error of each other in amyloid nucleation score: -0.274 ± 1.2 for the first, -0.044 ± 0.76 for the second.

Going from NSGFRAASS to NSLMFRPWTLGDF, the amyloid nucleation score falls from 2.02 ± 0.55 to -0.434 ± 1.7.

NSNARAGVLDLPSCRTVVIE and NSRMMLGVLSSVAYGVRMVW are within error of each other in amyloid nucleation score: 0.68 ± 0.65 for the first, 0.651 ± 0.56 for the second.

NSSKAMKKQVHLLFFRK and NSTPLADRCSVGMLPALKAD are within error of each other in amyloid nucleation score: 0.699 ± 0.42 for the first, -0.351 ± 0.63 for the second.

Going from NSYKCIWMSLGVV to NSYLCCIWK, the amyloid nucleation score rises from -0.897 ± 0.38 to 7.32 ± 0.08.

NTAQVLYYL and NTCHKIDSTI are within error of each other in amyloid nucleation score: -0.674 ± 0.22 for the first, -0.13 ± 0.59 for the second.

Going from NTDLTNRSDYLYIV to NTESLEFRSKKGGNCRAGLS, the amyloid nucleation score rises from -1.78 ± 1.2 to 0.495 ± 0.97.

First: NTKSTPNTSVLFSLTTRI
Second: NTKTNGTSIGNSTVVLHLIA
The amyloid nucleation score of the first is lower: 1.3 ± 0.15 for the first, 6.409 ± 0.057 for the second.

Going from NTMGSNWYMVVNSWFVRRCS to NTREVSVRETDCCKLTCMIA, the amyloid nucleation score rises from -1.01 ± 1.2 to 7.743 ± 0.043.

Compared with NVAFYVTVV, NVDFLISQSRIFYIERLSSQ is higher in amyloid nucleation score: -0.049 ± 0.26 for the first, 2.77 ± 0.16 for the second.

NVDWSPKRNINMGGWEKWLV and NVMQKNLFGSCIILLSWSLS are within error of each other in amyloid nucleation score: 0.261 ± 0.92 for the first, 0.078 ± 0.26 for the second.

First: NVRSFWFSGNQSNIGGICWG
Second: NVSFWFYPLSAFSRPFFGLH
The amyloid nucleation score of the first is lower: 0.204 ± 0.43 for the first, 2.74 ± 0.28 for the second.

First: NVVHRLLWQSSVTSYIAVSY
Second: NVYFLPIMA
The amyloid nucleation score of the first is higher: 1.86 ± 0.14 for the first, -1.06 ± 0.54 for the second.

NVYLGGLVQYFCQWLAGSIR and NWDGLYVYEYSRFVVASCRN are within error of each other in amyloid nucleation score: 0.59 ± 0.62 for the first, 1.2 ± 0.2 for the second.

In the case of NWEKVNLLTLRNTFRCSSRA, the amyloid nucleation score is reported as 0.751 ± 0.27.
